Source: publication PMC4620744
pIC50, pKd, pKi: −log10 of the molar value. Values belong to the substance of their own block, whether it stands above or below them.

How the values were obtained:
[1] = target: H2A-H2B^30-130 (S. cerevisiae) (UniProt P04911); assay: ITC
[2] = target: full-length H2A-H2B (S. cerevisiae) (UniProt P04911); assay: ITC
[3] = target: H2A-H2B^30-130 bearing H2B M62A (S. cerevisiae) (UniProt P04911); assay: ITC
[4] = target: H2A-H2B^30-130 bearing H2B Y45A and M62A (S. cerevisiae) (UniProt P04911); assay: ITC
[5] = target: H2A-H2B^30-130 bearing H2B Y45A (S. cerevisiae) (UniProt P04911); assay: ITC
[6] = target: full-length H2A-H2B (S. cerevisiae) (UniProt P04911); assay: fluorescence polarisation
[7] = target: full-length FACT (Spt16-Pob3 heterodimer) (S. cerevisiae) (UniProt P32558); assay: native gel or EMSA
[8] = target: full-length FACT (Spt16-Pob3 heterodimer) (S. cerevisiae) (UniProt P32558); assay: ITC
[9] = target: Fluorescein-Spt16 MBD (Spt16^965-990) (S. cerevisiae) (UniProt P32558); assay: fluorescence polarisation

Substance: Spt16-MBD EDEE987-990AAAA (from UniProt P32558 965-990) (peptide)
fold decrease in affinity against the unmutated peptide [1]: 15 fold

Substance: Spt16-MBD DES981-983AAA (from UniProt P32558 965-990) (peptide)
fold decrease in affinity against the unmutated peptide [1]: 10 fold

Substance: Pob3-MBD (Pob3^505-529) (from UniProt Q04636 505-529) (peptide)
fold decrease in affinity against H2A-H2B^30-130 [3]: 9 fold | fold decrease in affinity against H2A-H2B^30-130 [4]: 41 fold | fold decrease in affinity against H2A-H2B^30-130 [5]: 12 fold | pIC50 [6]: 4.80 | pKi [6]: 5.89

Substance: Spt16-MBD (Spt16^965-990) (from UniProt P32558 965-990) (peptide)
pIC50 [6]: 4.68 | pKi [6]: 5.64

Substance: Pob3-MBD DED509-511AAA (from UniProt Q04636 505-529) (peptide)
fold decrease in binding against the unmutated peptide [1]: 38 fold

Substance: Pob3 D509A (from UniProt Q04636 505-529) (peptide)
pKd [1]: 4.46

Substance: Pob3-MBD DNDAD517-521AAAAA (from UniProt Q04636 505-529) (peptide)
fold decrease in binding against the unmutated peptide [1]: 17 fold

Substance: Spt16 E968A (from UniProt P32558 965-990) (peptide)
pKd [1]: 5.30

Substance: Spt16^958-990 (from UniProt P32558 958-990) (peptide)
fold decrease in binding against H2A-H2B^30-130 [3]: 12 fold | fold decrease in binding against H2A-H2B^30-130 [4]: 42 fold | fold decrease in binding against H2A-H2B^30-130 [5]: 25 fold

The remaining lines, values ahead:

fold decrease in affinity against the unmutated peptide [1]: 12 fold
Substance: Spt16-MBD SEEE965-968AAAA (from UniProt P32558 965-990) (peptide)

pKd [2]: 6.10 | stoichiometry N [2]: 1
Substance: Spt16-C (domain or fragment)

fold decrease in binding against the unmutated peptide [1]: > 100 fold
Substance: Pob3-MBD F512A (from UniProt Q04636 505-529) (peptide)

fold decrease in binding against the unmutated peptide [1]: 48 fold
Substance: Spt16-MBD Y972A (from UniProt P32558 965-990) (peptide)

fold decrease in affinity against the unmutated peptide [1]: 20 fold
Substance: Spt16-MBD SEDD975-978AAAA (from UniProt P32558 965-990) (peptide)

apparent KD of one of two EMSA binding events [7]: 0.1 µM | apparent KD of the other of two EMSA binding events [7]: 0.15 µM | stoichiometry N [7]: 2 | KD of one of two independent binding sites [8]: 0.34 µM | KD of the other of two independent binding sites [8]: 1.62 µM | stoichiometry N [8]: 2 | pKd [9]: 5.64
Substance: full-length H2A-H2B (from UniProt P04911 1-132; P02293 1-131) (complex)
